One block for each molecule: values may come before it.
Columns and labels:
[1] = target: Myosin VI N-terminal tail fragment, non-insert isoform (NMVI_(TAIL(NI))); experiment: FRET or BRET
[2] = target: Myosin VI N-terminal tail fragment, large-insert isoform (NMVI_(TAIL(LI))); experiment: FRET or BRET
[3] = target: nuclear dot protein 52 (NDP52/CALCOCO2) (UniProt Q13137); experiment: FRET or BRET
[4] = target: Dab2 C-terminal region (residues 649-770) (UniProt P98082); experiment: FRET or BRET
[5] = target: Myosin VI tail, large-insert isoform (MVI_(TAIL(LI))); experiment: FRET or BRET
[6] = target: Myosin VI tail, non-insert isoform (MVI_(TAIL(NI)), aa 814-1253); experiment: FRET or BRET
[7] = target: T1, Dab2 C-terminal region (myosin VI binding site) (Homo sapiens, UniProt P98082 649-770); experiment: fluorescence anisotropy
T1 sequence: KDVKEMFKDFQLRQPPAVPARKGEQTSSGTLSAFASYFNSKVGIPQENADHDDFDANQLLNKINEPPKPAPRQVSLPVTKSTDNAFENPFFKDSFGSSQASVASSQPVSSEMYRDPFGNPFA

[8] = target: Myosin VI CBD (cargo-binding domain; non-insert isoform) (Homo sapiens, UniProt Q9UM54-5 1060-1253); experiment: fluorescence anisotropy

Sequence of nuclear dot protein 52 (NDP52/CALCOCO2) (Q13137 whole entry, the tested form may be a part): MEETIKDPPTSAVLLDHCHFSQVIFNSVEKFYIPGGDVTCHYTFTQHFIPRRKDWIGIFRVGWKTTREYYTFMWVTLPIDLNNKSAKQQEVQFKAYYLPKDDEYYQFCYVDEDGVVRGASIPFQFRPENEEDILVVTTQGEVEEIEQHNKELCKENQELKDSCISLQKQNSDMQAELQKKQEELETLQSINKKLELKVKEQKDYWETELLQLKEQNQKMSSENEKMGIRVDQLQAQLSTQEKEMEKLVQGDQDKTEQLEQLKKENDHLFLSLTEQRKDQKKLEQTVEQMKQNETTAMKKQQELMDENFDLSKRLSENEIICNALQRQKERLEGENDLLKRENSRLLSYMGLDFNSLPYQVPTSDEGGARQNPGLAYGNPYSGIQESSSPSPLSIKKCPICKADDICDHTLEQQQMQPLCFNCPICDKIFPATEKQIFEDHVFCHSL

Kd with 10 μM NDP52 [1]: 4.1 µM
Kd with 10 μM Dab2 [2]: 6 µM
Molecule: Myosin VI C-terminal globular cargo binding domain (CBD) (domain or fragment)

Kd [3]: 17.3 µM
Kd [4]: 3.5 µM
Kd^DIMER with 20 μM Dab2 [5]: 3.3 µM
Kd^DIMER with 20 μM NDP52 [5]: 9.3 µM
Molecule: Myosin VI tail, large-insert isoform (MVI_(TAIL(LI))) (domain or fragment)

Kd^DIMER with 20 μM Dab2 [6]: 5.3 µM
Kd^DIMER with 20 μM NDP52 [6]: 4.3 µM
Kd [3]: 2.1 µM
Kd [4]: 11.6 µM
Molecule: Myosin VI tail, non-insert isoform (MVI_(TAIL(NI)), aa 814-1253) (domain or fragment)

B1: ds40 FAM-DNA (40 bp) (dsDNA)
DNA 1: TTAGTTGTTCGTAGTGCTCGTCTGGCTCTGGATTACCCGC
DNA 2: GCGGGTAATCCAGAGCCAGACGAGCACTACGAACAACTAA
binding result [7]: no binding
Kd [8]: 0.14 µM

Reference: publication doi:10.1101/639963
